One test relates to MCF-7. Nature of the test: Potency against human tumor cell lines. The format is cell-based. As to conditions: MCF-7, Breast.
Another test has as its system Histone H1. Nature of the test: Digestion of histone H1, SDS-PAGE. In kind it is biochemical. As for the experimental part:
Histone H1 was incubated with various concentrations of the chromoprotein in 50 mM Tris-Cl, pH 7.5 overnight at 37° C. (FIG. 29) Digestions of histone were assessed by SDS-polyacrylamide gel electrophoresis (SDS-PAGE), followed by staining of the gel with GelCode Blue (Pierce Biotechnology, Inc, Rockford, Ill.).

Test [1] concerns HCT116 colon carcinoma cells. Nature of the test: Uptake of FITC-tagged chromoprotein and apoprotein, fluorescent microscopy / flow cytometry. In kind it is cell-based. The procedure: To determine the mechanism by which the chromoprotein enters cells and exerts its biological activity, the chromoprotein was labeled with a fluorescent tag (FITC) using EZ-Label fluorescent labeling kit (Pierce Biotechnology), according to the manufacturer's recommendation. […] Uptake of labeled material by HCT116 colon carcinoma cells was studied by fluorescent microscopy. Optimum incubation time with cells was 3-6 hours. […] Even though nuclear accumulation is low, the amount is most likely sufficient for biological activity given the potency of the complex.
To determine whether an intact complex of chromophore and apoprotein is required for cellular and nuclear entry, the chromoprotein and apoprotein were labeled with FITC. Uptake of labeled material was studied by fluorescent microscopy. Uptake was similar for both apoprotein and chromoprotein.
To determine whether the entry of chromoprotein into cells is mediated by a saturable (e.g. cell surface receptor-dependent) process, HCT116 cells were incubated with FITC-labeled chromoprotein (FIG. 37, right panel) or apoprotein (FIG. 37, left panel) in the absence or presence of 10-fold excess of unlabeled reagent (unlabelled chromoprotein or apoprotein, respectively). Cells were analysed by fluorescent microscopy (left) or flow cytometry (right). […] Furthermore, a single homogeneous peak observed in flow cytometry histograms indicated uniform uptake of labeled reagent by all cells. Numbers in the histograms are mean channel numbers (FITC fluorescence).
Other means by which a protein complex can enter cells is pinocytosis, where caveolae in the surface of the cell pinch off to form pinosomes that are free within the cytoplasm of the cell. Since pinocytosis is an energy-dependent process that requires a functional tubulin cytoskeletal network, we examined the effect of sodium azide, an energy uncoupling agent and nocodazole, an agent which disrupts the tubulin cytoskeleton on cellular uptake. HCT116 cells were treated with FITC-labeled apoprotein in the absence or presence of sodium azideor nocodazole. […] Since the data appears to rule out a receptor-mediated process, pinocytosis is most likely involved.
For orientation: In flow cytometry, cells or beads pass a laser one at a time.

In test [2] the test system is E. coli BR513-80 SOS response. Nature of the test: Biochemical induction assay (BIA). As to conditions: purified, approximately 90% pure. In kind it is cell-based. An excerpt:
The biochemical induction assay identifies DNA damaging agents which induce the SOS response in E. coli BR513-80. BR513-80 contains a translational fusion of the λ PL promoter and the lacZ gene. The λ PL promoter, activated as part of the SOS response after exposure to DNA damaging agents, drives the synthesis of β-galactosidase. β-galactosidase activity is detected by the cleavage of the 6-bromo-2-naphthyl-β-D-galactopyranoside (BNG) which reacts with Fast Blue RR salt to produce a red/purple color. […]
A BR513-80 overnight culture is diluted 1:20 in LBE broth or equivalent, and the absorbance of the diluted culture is measured at 600 nm. The absorbance of the undiluted culture is calculated, and 5.7 is divided by this value to obtain the volume (in mL) of culture to use as an inoculum per 40 mL soft agar. […] The calculated culture volume is swirled in soft agar, poured evenly over the base layer (40 ml per Nunc BioAssay plate, or 20 mL per 150 mm petri dish), and allowed to solidify for at least 10-15 minutes. […]
A dye/substrate overlay is prepared by dissolving 87 mg Fast Blue RR salt and 13 mg BNG in 2 mL DMSO and mixing with 40 mL melted 1% soft agar. […] The induction response is scored after 15-20 minutes at room temperature or after 10 min. at about 37° C. […]

Consider one molecule from patent publication US20100028952A1, “FERMENTATION AND PURIFICATION OF ACTINOMADURA CHROMOPROTEIN AND RELATED SPECIES” (WYETH, priority 2006, published 2010).

B1: Actinomadura sp. 21G792 chromoprotein: non-covalent complex of an apoprotein and a chromophore comprising a nine-membered enediyne, produced by Actinomadura sp. 21G792 (NRRL 30778) (protein)
chain: DTVTVNYDCVGYPSDIAVTIDAPATAGVGDTATFEVSSVVTTGAPQDLPAGEVVTDMAIVVGGAQSGTITASGLTNEATPAGQPVNMVGGEAQITFTSAGSVTFTPSTTTQVDNGAQCTVVGEAPVGATTVVS
Broadly, the IC50 is the concentration at which inhibition is half-maximal. A low value points to greater potency in that assay. For the molecule B1, the IC50 with MCF-7 was determined as 2 µg/mL. Further, the “effect of free radical scavengers and protease inhibitors on digestion of histones” value with Histone H1 (30 mM glutathione or N-acetyl cysteine, protease inhibitors) is “inhibited by the addition of free radical scavengers, 30 mM glutathione or N-acetyl cysteine (not shown), but not by protease inhibitors”. Further, the “digestion of histone H1” value in the test on Histone H1 (50 mM Tris-Cl, pH 7.5 overnight at 37° C.) is recorded as “digestion of Histone H1”. For the same molecule, the “effect of DNA on digestion of histone H1” value in the test on Histone H1 (addition of DNA) was “inhibited by addition of DNA”. Besides, the “competition of label by unlabeled reagent” value in test [1] (10-fold excess of unlabeled reagent) is on record as “No competition of label was observed”. In test [1] (FITC labeled), the “biological activity upon FITC labeling” value is “No loss of biological activity” and the “uptake of labeled material, apoprotein versus chromoprotein” value is on record as “similar”. Also, in test [1] (FITC labeled, fluorescent microscopy), the “cellular localisation of label” value is “Most of the label appeared in the cytoplasm, although weak staining was also observed in the nucleus”. Moreover, the BIA activity result in test [2] is on record as “BIA active”.
